B1: NIgG4E1A1(G4S)1 (Fc fusion)
chain 1: DVQLQESGGGLVQAGGSLRLSCLASGRTFTTTSGYNMGWFRQAPGKEREFVAGIKWVSGSNRAYAESVKGRFTISRDNAKNTVYLQMNSLKPEDTAVYYCAAATGQSYVPIREYEYVYWGQGTQVTVSGGGGSGPPCPPCPAPEFLGGPSVFLFPPKPKDTLMISRTPEVTCVVVDVSQEDPEVQFNWYVDGVEVHNAKTKPREEQFNSTYRVVSVLTVLHQDWLNGKEYKCKVSNKGLPSSIEKTISKAKGQPREPQVYTLPPCQEEMTKNQVSLWCLVKGFYPSDIAVEWESNGQPENNYKTTPPVLDSDGSFFLYSRLTVDKSRWQEGNVFSCSVMHEALHNHYTQKSLSLSLGK
chain 2: EVQLLESGGGLVQPGGSLRLSCAASGFTFGNYDMAWVRQAPGKRPEWVSSIDTGGDITHYADSVKGRFTISRDNAKNTLYLQMNSLRPEDTAVYWCATDEEYALGPNEFDYYGQGTLVTVSSGGGGSGPPCPPCPAPEFLGGPSVFLFPPKPKDTLMISRTPEVTCVVVDVSQEDPEVQFNWYVDGVEVHNAKTKPREEQFNSTYRVVSVLTVLHQDWLNGKEYKCKVSNKGLPSSIEKTISKAKGQPREPQVCTLPPSQEEMTKNQVSLSCAVKGFYPSDIAVEWESNGQPENNYKTTPPVLDSDGSFFLVSRLTVDKSRWQEGNVFSCSVMHEALHNHYTQKSLSLSLGK
B2: CIgG4D2A1(G4S)1 (Fc fusion)
chain 1: GPPCPPCPAPEFLGGPSVFLFPPKPKDTLMISRTPEVTCVVVDVSQEDPEVQFNWYVDGVEVHNAKTKPREEQFNSTYRVVSVLTVLHQDWLNGKEYKCKVSNKGLPSSIEKTISKAKGQPREPQVYTLPPCQEEMTKNQVSLWCLVKGFYPSDIAVEWESNGQPENNYKTTPPVLDSDGSFFLYSRLTVDKSRWQEGNVFSCSVMHEALHNHYTQKSLSLSLGKGGGGSDVQLQESGGGLVEAGGSLRLSCVASGRTFSGWSMGWFRQAPGKEREFVAAISWVGSWIGGTVYSNSVKGRFTISRDNARTTVYLQMNSLKPEDTAVYFCAAANSETPRIFASEYDYWGQGTQVTVS
chain 2: GPPCPPCPAPEFLGGPSVFLFPPKPKDTLMISRTPEVTCVVVDVSQEDPEVQFNWYVDGVEVHNAKTKPREEQFNSTYRVVSVLTVLHQDWLNGKEYKCKVSNKGLPSSIEKTISKAKGQPREPQVCTLPPSQEEMTKNQVSLSCAVKGFYPSDIAVEWESNGQPENNYKTTPPVLDSDGSFFLVSRLTVDKSRWQEGNVFSCSVMHEALHNHYTQKSLSLSLGKGGGGSEVQLLESGGGLVQPGGSLRLSCAASGFTFGNYDMAWVRQAPGKRPEWVSSIDTGGDITHYADSVKGRFTISRDNAKNTLYLQMNSLRPEDTAVYWCATDEEYALGPNEFDYYGQGTLVTVSS
B3: NIgG4E1A1(RS) (Fc fusion)
chain 1: DVQLQESGGGLVQAGGSLRLSCLASGRTFTTTSGYNMGWFRQAPGKEREFVAGIKWVSGSNRAYAESVKGRFTISRDNAKNTVYLQMNSLKPEDTAVYYCAAATGQSYVPIREYEYVYWGQGTQVTVSRSGPPCPPCPAPEFLGGPSVFLFPPKPKDTLMISRTPEVTCVVVDVSQEDPEVQFNWYVDGVEVHNAKTKPREEQFNSTYRVVSVLTVLHQDWLNGKEYKCKVSNKGLPSSIEKTISKAKGQPREPQVYTLPPCQEEMTKNQVSLWCLVKGFYPSDIAVEWESNGQPENNYKTTPPVLDSDGSFFLYSRLTVDKSRWQEGNVFSCSVMHEALHNHYTQKSLSLSLGK
chain 2: EVQLLESGGGLVQPGGSLRLSCAASGFTFGNYDMAWVRQAPGKRPEWVSSIDTGGDITHYADSVKGRFTISRDNAKNTLYLQMNSLRPEDTAVYWCATDEEYALGPNEFDYYGQGTLVTVSSRSGPPCPPCPAPEFLGGPSVFLFPPKPKDTLMISRTPEVTCVVVDVSQEDPEVQFNWYVDGVEVHNAKTKPREEQFNSTYRVVSVLTVLHQDWLNGKEYKCKVSNKGLPSSIEKTISKAKGQPREPQVCTLPPSQEEMTKNQVSLSCAVKGFYPSDIAVEWESNGQPENNYKTTPPVLDSDGSFFLVSRLTVDKSRWQEGNVFSCSVMHEALHNHYTQKSLSLSLGK
B4: CIgG4D2A1(RS) (Fc fusion)
chain 1: GPPCPPCPAPEFLGGPSVFLFPPKPKDTLMISRTPEVTCVVVDVSQEDPEVQFNWYVDGVEVHNAKTKPREEQFNSTYRVVSVLTVLHQDWLNGKEYKCKVSNKGLPSSIEKTISKAKGQPREPQVYTLPPCQEEMTKNQVSLWCLVKGFYPSDIAVEWESNGQPENNYKTTPPVLDSDGSFFLYSRLTVDKSRWQEGNVFSCSVMHEALHNHYTQKSLSLSLGKRSDVQLQESGGGLVEAGGSLRLSCVASGRTFSGWSMGWFRQAPGKEREFVAAISWVGSWIGGTVYSNSVKGRFTISRDNARTTVYLQMNSLKPEDTAVYFCAAANSETPRIFASEYDYWGQGTQVTVS
chain 2: GPPCPPCPAPEFLGGPSVFLFPPKPKDTLMISRTPEVTCVVVDVSQEDPEVQFNWYVDGVEVHNAKTKPREEQFNSTYRVVSVLTVLHQDWLNGKEYKCKVSNKGLPSSIEKTISKAKGQPREPQVCTLPPSQEEMTKNQVSLSCAVKGFYPSDIAVEWESNGQPENNYKTTPPVLDSDGSFFLVSRLTVDKSRWQEGNVFSCSVMHEALHNHYTQKSLSLSLGKRSEVQLLESGGGLVQPGGSLRLSCAASGFTFGNYDMAWVRQAPGKRPEWVSSIDTGGDITHYADSVKGRFTISRDNAKNTLYLQMNSLRPEDTAVYWCATDEEYALGPNEFDYYGQGTLVTVSS
B5: CIgG4D1A1(G4S)3 (Fc fusion)
chain 1: GPPCPPCPAPEFLGGPSVFLFPPKPKDTLMISRTPEVTCVVVDVSQEDPEVQFNWYVDGVEVHNAKTKPREEQFNSTYRVVSVLTVLHQDWLNGKEYKCKVSNKGLPSSIEKTISKAKGQPREPQVYTLPPCQEEMTKNQVSLWCLVKGFYPSDIAVEWESNGQPENNYKTTPPVLDSDGSFFLYSRLTVDKSRWQEGNVFSCSVMHEALHNHYTQKSLSLSLGKGGGGSGGGGSGGGGSDVQLQESGGGLVQAGGSLRLSCAASGLTFSRCDMGWFRQAPGKEREFVARISANGASTHYADFVKGRFTISRDNAKNTVYLQMNYLKPEDTAVYICAAARVPVTWQLYDYWGQGTQVTVS
chain 2: GPPCPPCPAPEFLGGPSVFLFPPKPKDTLMISRTPEVTCVVVDVSQEDPEVQFNWYVDGVEVHNAKTKPREEQFNSTYRVVSVLTVLHQDWLNGKEYKCKVSNKGLPSSIEKTISKAKGQPREPQVCTLPPSQEEMTKNQVSLSCAVKGFYPSDIAVEWESNGQPENNYKTTPPVLDSDGSFFLVSRLTVDKSRWQEGNVFSCSVMHEALHNHYTQKSLSLSLGKGGGGSGGGGSGGGGSEVQLLESGGGLVQPGGSLRLSCAASGFTFGNYDMAWVRQAPGKRPEWVSSIDTGGDITHYADSVKGRFTISRDNAKNTLYLQMNSLRPEDTAVYWCATDEEYALGPNEFDYYGQGTLVTVSS
B6: CIgG4D2A1(G4S)3 (Fc fusion)
chain 1: GPPCPPCPAPEFLGGPSVFLFPPKPKDTLMISRTPEVTCVVVDVSQEDPEVQFNWYVDGVEVHNAKTKPREEQFNSTYRVVSVLTVLHQDWLNGKEYKCKVSNKGLPSSIEKTISKAKGQPREPQVYTLPPCQEEMTKNQVSLWCLVKGFYPSDIAVEWESNGQPENNYKTTPPVLDSDGSFFLYSRLTVDKSRWQEGNVFSCSVMHEALHNHYTQKSLSLSLGKGGGGSGGGGSGGGGSDVQLQESGGGLVEAGGSLRLSCVASGRTFSGWSMGWFRQAPGKEREFVAAISWVGSWIGGTVYSNSVKGRFTISRDNARTTVYLQMNSLKPEDTAVYFCAAANSETPRIFASEYDYWGQGTQVTVS
chain 2: B5 chain 2
B7: CIgG4D1A1(G4S)2 (Fc fusion)
chain 1: GPPCPPCPAPEFLGGPSVFLFPPKPKDTLMISRTPEVTCVVVDVSQEDPEVQFNWYVDGVEVHNAKTKPREEQFNSTYRVVSVLTVLHQDWLNGKEYKCKVSNKGLPSSIEKTISKAKGQPREPQVYTLPPCQEEMTKNQVSLWCLVKGFYPSDIAVEWESNGQPENNYKTTPPVLDSDGSFFLYSRLTVDKSRWQEGNVFSCSVMHEALHNHYTQKSLSLSLGKGGGGSGGGGSDVQLQESGGGLVQAGGSLRLSCAASGLTFSRCDMGWFRQAPGKEREFVARISANGASTHYADFVKGRFTISRDNAKNTVYLQMNYLKPEDTAVYICAAARVPVTWQLYDYWGQGTQVTVS
chain 2: GPPCPPCPAPEFLGGPSVFLFPPKPKDTLMISRTPEVTCVVVDVSQEDPEVQFNWYVDGVEVHNAKTKPREEQFNSTYRVVSVLTVLHQDWLNGKEYKCKVSNKGLPSSIEKTISKAKGQPREPQVCTLPPSQEEMTKNQVSLSCAVKGFYPSDIAVEWESNGQPENNYKTTPPVLDSDGSFFLVSRLTVDKSRWQEGNVFSCSVMHEALHNHYTQKSLSLSLGKGGGGSGGGGSEVQLLESGGGLVQPGGSLRLSCAASGFTFGNYDMAWVRQAPGKRPEWVSSIDTGGDITHYADSVKGRFTISRDNAKNTLYLQMNSLRPEDTAVYWCATDEEYALGPNEFDYYGQGTLVTVSS
B8: CIgG4D2A1(G4S)2 (Fc fusion)
chain 1: GPPCPPCPAPEFLGGPSVFLFPPKPKDTLMISRTPEVTCVVVDVSQEDPEVQFNWYVDGVEVHNAKTKPREEQFNSTYRVVSVLTVLHQDWLNGKEYKCKVSNKGLPSSIEKTISKAKGQPREPQVYTLPPCQEEMTKNQVSLWCLVKGFYPSDIAVEWESNGQPENNYKTTPPVLDSDGSFFLYSRLTVDKSRWQEGNVFSCSVMHEALHNHYTQKSLSLSLGKGGGGSGGGGSDVQLQESGGGLVEAGGSLRLSCVASGRTFSGWSMGWFRQAPGKEREFVAAISWVGSWIGGTVYSNSVKGRFTISRDNARTTVYLQMNSLKPEDTAVYFCAAANSETPRIFASEYDYWGQGTQVTVS
chain 2: B7 chain 2

The target of the assay is T1, recombinant human IgE (human, UniProt P01854-1 1-428).
T1 construct: made in-house (ALK); preloaded on immobilised FcεRIα in the displacement ELISA
T1 sequence (P01854 other isoform, or with tags, fused parts or gaps): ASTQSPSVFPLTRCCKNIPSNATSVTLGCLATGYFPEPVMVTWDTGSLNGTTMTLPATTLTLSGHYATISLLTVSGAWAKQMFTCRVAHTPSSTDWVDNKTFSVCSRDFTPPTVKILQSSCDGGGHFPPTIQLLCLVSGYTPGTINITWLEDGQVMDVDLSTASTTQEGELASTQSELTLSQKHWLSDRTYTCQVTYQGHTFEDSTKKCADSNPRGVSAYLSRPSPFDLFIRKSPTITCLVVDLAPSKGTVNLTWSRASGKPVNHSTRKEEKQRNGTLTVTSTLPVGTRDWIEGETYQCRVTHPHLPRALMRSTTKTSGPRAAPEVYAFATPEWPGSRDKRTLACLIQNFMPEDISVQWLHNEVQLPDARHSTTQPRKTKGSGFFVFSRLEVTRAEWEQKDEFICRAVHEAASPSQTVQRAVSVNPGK
In words: IgE-FcεRIα displacement ELISA. Summed up: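 sdAbs at pM–μM were incubated 1 h on preformed complexes of 13 ng/ml recombinant human IgE with avi-tag-biotinylated human FcεRIα captured on streptavidin.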
(In general: ELISA stands for enzyme-linked immunosorbent assay.)
Consider B1, for which the Max effect was over 95%.
On to B2, for which the EC50 was found to be 25 nM and the Max effect was over 95%.
On to B3, for which the Max effect was over 95%.
Consider B4, for which the Max effect came out at 35%.
Regarding B5, the concentration for a half-maximal effect (EC50) amounted to 14 nM and the Max effect was over 95%.
As for B6, the concentration giving a half-maximal response (EC50) was 4.8 nM and the Max effect was over 95%.
For B7, in that order: 30 nM and over 95%.
Take B8: the EC50 amounted to 7 nM and the Max effect is over 95%.

By EC50 is commonly meant the concentration giving half of the maximal effect.

These data come from patent publication US20250171562A1 (ALK ABELL, published 2025).
